What all share (test): analytical SEC
Holding throughout (settings): cell culture supernatant of Expi293F cells; parent: est. 72; read off a plot

In assay [1] the target is B/Iowa/06/2017 HA HA1 152W.
Assay [2] addresses B/Iowa/06/2017 HA HA1 213A.
Assay [3] has as its target B/Iowa/06/2017 HA HA1 K209R.
Assay [4] concerns the target B/Iowa/06/2017 HA HA1 T211L.
Assay [5] addresses B/Iowa/06/2017 HA HA1 T218I.
The target of assay [6] is B/Iowa/06/2017 HA HA2 67A.
Assay [7] concerns the target B/Iowa/06/2017 HA HA2 91V.
In assay [8] the target is B/Iowa/06/2017 HA HA2 111L.
Assay [9] has as its target B/Iowa/06/2017 HA HA2 E113N.
Assay [10] deals with B/Iowa/06/2017 HA HA2 H22F.
For assay [11], the target named is B/Iowa/06/2017 HA HA2 H22W.
The target in assay [12] is B/Iowa/06/2017 HA HA2 H114F.
Assay [13] deals with B/Iowa/06/2017 HA HA2 H114N.
Assay [14] deals with B/Iowa/06/2017 HA HA2 S110R.

Consider “wild-type soluble hemagglutinin (HA) of influenza B/Iowa/06/2017 HA1:152W”, for which the other: trimer fraction in [1] worked out at 81%.

As to “wild-type soluble hemagglutinin (HA) of influenza B/Iowa/06/2017 HA1:213A”, in assay [2], the other: trimer fraction was found to be 82%.

On to “wild-type soluble hemagglutinin (HA) of influenza B/Iowa/06/2017 HA1:K209R”, for which the other: trimer fraction in assay [3] came out at 79%.

In the case of “wild-type soluble hemagglutinin (HA) of influenza B/Iowa/06/2017 HA1:T211L”, in assay [4], the other: trimer fraction was determined as 95%.

Regarding “wild-type soluble hemagglutinin (HA) of influenza B/Iowa/06/2017 HA1:T218I”, the other: trimer fraction in [5] was determined as 82%.

Turning to “wild-type soluble hemagglutinin (HA) of influenza B/Iowa/06/2017 HA2:67A”, the other: trimer fraction in assay [6] stood at 64%.

Consider “wild-type soluble hemagglutinin (HA) of influenza B/Iowa/06/2017 HA2:91V”, for which the other: trimer fraction in [7] worked out at 77%.

For the substance “wild-type soluble hemagglutinin (HA) of influenza B/Iowa/06/2017 HA2:111L”, the other: trimer fraction in assay [8] came out at 55%.

Consider “wild-type soluble hemagglutinin (HA) of influenza B/Iowa/06/2017 HA2:E113N”, for which the other: trimer fraction in assay [9] was found to be 96%.

In the case of “wild-type soluble hemagglutinin (HA) of influenza B/Iowa/06/2017 HA2:H22F”, the other: trimer fraction in assay [10] is 91%.

“wild-type soluble hemagglutinin (HA) of influenza B/Iowa/06/2017 HA2:H22W”: in [11], the other: trimer fraction came out at 81%.

Consider “wild-type soluble hemagglutinin (HA) of influenza B/Iowa/06/2017 HA2:H114F”, for which the other: trimer fraction in assay [12] was 75%.

As to “wild-type soluble hemagglutinin (HA) of influenza B/Iowa/06/2017 HA2:H114N”, the other: trimer fraction in assay [13] came out at 57%.

Regarding “wild-type soluble hemagglutinin (HA) of influenza B/Iowa/06/2017 HA2:S110R”, the other: trimer fraction in assay [14] came to 86%.
